This test has as its target T1, His-Cdc42 (UniProt P60953 1-191, limits assumed).
T1 construct: Bought protein; also called His-tagged Cdc42; Cdc42-GTPγS; not shown: His tag
Description: in vitro pull-down of immobilized His-Cdc42 (nucleotide analogs as indicated) with purified bovine SOD1, Western blot (FIG. 1B). The method, then: Pull-down assays with GST- and His-tagged proteins. Dynabeads talon for histidine tagged proteins were washed with potassium phosphate buffer (PPHB) containing 100 mM KH₂PO₄, 10 mM NaCl, 0.25 mM MgCl₂ and 100 nM CaCl₂. […] The GTPases were either used directly or preloaded with either GTPγS or GDPβS and then washed. […] Samples were incubated at room temperature (RT) for 30 minutes with intermittent gentle agitation. […] The fourth wash was carried out in 50 mM Tris pH 6.8. Proteins were eluted using 20 μl 125 mM imidazole and samples were then mixed with SDS-PAGE reducing loading buffer and separated by SDS-PAGE for Western blotting.

T1 sequence (P60953 whole entry): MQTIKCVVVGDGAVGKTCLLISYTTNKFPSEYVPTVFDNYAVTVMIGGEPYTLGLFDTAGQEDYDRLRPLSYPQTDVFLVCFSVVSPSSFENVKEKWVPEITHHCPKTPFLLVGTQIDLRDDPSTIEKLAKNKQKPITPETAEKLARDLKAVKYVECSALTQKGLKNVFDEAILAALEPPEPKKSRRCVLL

B1: Bovine copper/zinc superoxide dismutase (SOD1), native (enzyme)
chain: not shown
notes: Native, metalated enzyme as bought; also called bovine SOD1; Bov.SOD1
For B1, the binding result was “no binding”.

These data come from patent publication US20070265350A1 (UNIVERSITY OF IOWA RESEARCH FOUNDATION, published 2007).
